Our source for the binding values is publication PMC1974823.

For this data set, the target named is T1, rFimR (Porphyromonas gingivalis (ATCC 33277?)) (UniProt B2RJ77).
T1 sequence: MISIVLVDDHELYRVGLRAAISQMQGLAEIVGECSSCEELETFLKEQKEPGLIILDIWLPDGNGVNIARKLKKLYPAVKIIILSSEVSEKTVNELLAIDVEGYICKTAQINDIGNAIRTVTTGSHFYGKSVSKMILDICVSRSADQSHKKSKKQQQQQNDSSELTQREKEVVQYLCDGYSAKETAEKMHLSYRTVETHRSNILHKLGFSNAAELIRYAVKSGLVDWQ
As to the kind of experiment: EMSA. A general note: Mobility shift assays separate free from complexed probe on a gel.

Turning to “CAGATGGGTTGTTGCTCAAGGAGAACGTCGCCAATACCTAAGCAAGAAAAGAGGAACTGTTCCAGAAAATACTTGGGTTACTCCGGGTTCTGGTTTCGTTCCTACCAGCAGCACTTTCTAT (double strand) [mfa1 coding region (121 bp)]”, the binding entry is on record as “no binding”.
“TGTAACGGGTTCTGCCTCGTTGTCTTTGTTACAAGCTGTCATAGCAAGAGCAGCAAGTCCCAACAAGAAAAACTTTGTTTTTTTCATCTCGTTTTTGTTTTAAAAGTGAATATTGTTTTCTAAAAATCTAATCTTTTCCCATTTAGAGATTGTCTTGCATATAGCGTCG (double strand) [fimA promoter (176 bp)]”: the binding result is “no binding”.
